Test results reported in patent publication WO2007014992A2 (dated 2007).

Target: T1, human LDL (Low Density Lipoprotein) receptor (human, UniProt P01130 22-860)
T1 construct: whole, on cells; Endogenous receptor on human A549 and MDA-MB-231 cells (flow cytometry); also called LDL-R; human LDL-R
Assay: Western blot of total protein extracts of MDA-MB-231 cells

T1 sequence (P01130 22-860): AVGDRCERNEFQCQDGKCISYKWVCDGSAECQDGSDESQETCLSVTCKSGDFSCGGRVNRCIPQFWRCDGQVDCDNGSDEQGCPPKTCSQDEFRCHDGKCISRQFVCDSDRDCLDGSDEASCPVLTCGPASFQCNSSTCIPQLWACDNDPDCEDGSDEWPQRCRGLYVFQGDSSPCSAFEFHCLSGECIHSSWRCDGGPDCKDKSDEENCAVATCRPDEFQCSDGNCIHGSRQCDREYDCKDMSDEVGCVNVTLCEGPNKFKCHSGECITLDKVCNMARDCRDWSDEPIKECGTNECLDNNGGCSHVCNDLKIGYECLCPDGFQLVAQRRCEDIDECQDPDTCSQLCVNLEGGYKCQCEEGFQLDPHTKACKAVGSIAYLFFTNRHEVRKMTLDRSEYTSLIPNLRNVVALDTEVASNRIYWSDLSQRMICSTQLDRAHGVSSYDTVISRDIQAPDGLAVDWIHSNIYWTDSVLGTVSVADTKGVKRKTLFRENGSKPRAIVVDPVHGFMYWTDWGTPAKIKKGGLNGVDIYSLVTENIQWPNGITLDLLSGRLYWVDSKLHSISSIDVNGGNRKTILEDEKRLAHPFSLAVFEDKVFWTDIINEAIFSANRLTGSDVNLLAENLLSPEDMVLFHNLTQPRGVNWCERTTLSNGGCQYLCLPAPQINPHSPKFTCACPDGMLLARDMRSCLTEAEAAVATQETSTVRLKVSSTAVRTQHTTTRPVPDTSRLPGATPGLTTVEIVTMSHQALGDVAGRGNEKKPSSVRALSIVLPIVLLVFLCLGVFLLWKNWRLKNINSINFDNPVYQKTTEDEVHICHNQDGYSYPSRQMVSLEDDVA

B1: Anti-LDL-R 5E5 monoclonal antibody produced by the hybridoma H5E5 (CNCM I-3488) (antibody, V domains shown)
VH: QVQLQQSGPELVRPGVSVKISCKGSGYTFTDYAMHWVKQSHAQSLEWIGFISTYSGNTNYNQKFKGRATMTVDKSSSTAYMELARLTSEDSAIYYCARPNYYGSSPGGFAYWGQGTLVTVSA
VL: ENVLTQSPAIMSASLGEKVTMSCRARSSVNYMYWYQQKSDASPKLWIYYTSNLAPGVPARFSGSGSGNSYSLTISSMEGEDAATYYCQQFTSSPSFGGGTKLEIK
notes: also called anti-LDL-R 5E5 antibodies; murine antibody 5E5
binding result: binds
